US20210087289A1

B1: mAb119-ADC (AMT119), mAb119 conjugated with MC-vc-PAB-MMAE (protein)
VH: EVQLQESGPELKKPGETVKISCKASGYIFTNYGMNWVKQAPGKGLKWMGWINTYTGEPTYADDFKGRFAFSLETSASTAYLQINNLKNEDTATYFCARTDYYGSSYWYFDVWGAGTTVTVSS
VL: DIQMTQTTSSLSASLGDRVTITCSASQGISNYLNWYQQKPDGTVKLLIFYTSTLPSGVPSRFSGSGSGTDYSLTIRNLEPEDFATYCCQQYSKFPYTFGGGTKLEIK
modifications: here or on the partner: MC-vc-PAB-MMAE conjugated to the antibody (average DAR about 6); attachment residues and chain not stated
B2: anti-CD44v9 monoclonal antibody mAb116 (antibody, V domains shown)
VH: QVQLQQSGAELVKPGASVKLSCTASGFNIKDTYMHWVKQRPEQGLEWIGRIDPANGNTKYDPKFQGKATITADTSSNTAYLQLSSLTSEDTAVYYCASRGEGTGFAYWGLGTLVTVSA
VL: DIVMTQSAPSVPVTPGESVSISCRSSKSLLHSNGNTYLYWFLQRPGQSPQLLIHRMSNLASGVPDRFSGSGSGTAFTLRISRVEAEDVGVYYCMQHLEYPFTFGGGTKLEIK

How the values were obtained:
[1] = biological target: human CD44v6 (CD44 variant containing exon v6), as expressed on PC9 cells and in human tissues (human), P16070; test: cell-based or functional assay
[2] = biological target: human CD44v9 (CD44 variant containing exon v9), as expressed on PC9 cells and in human tissues (human) (UniProt P16070); test: cell-based or functional assay
Sequence of UniProt P16070 (P16070 21-742, change not shown): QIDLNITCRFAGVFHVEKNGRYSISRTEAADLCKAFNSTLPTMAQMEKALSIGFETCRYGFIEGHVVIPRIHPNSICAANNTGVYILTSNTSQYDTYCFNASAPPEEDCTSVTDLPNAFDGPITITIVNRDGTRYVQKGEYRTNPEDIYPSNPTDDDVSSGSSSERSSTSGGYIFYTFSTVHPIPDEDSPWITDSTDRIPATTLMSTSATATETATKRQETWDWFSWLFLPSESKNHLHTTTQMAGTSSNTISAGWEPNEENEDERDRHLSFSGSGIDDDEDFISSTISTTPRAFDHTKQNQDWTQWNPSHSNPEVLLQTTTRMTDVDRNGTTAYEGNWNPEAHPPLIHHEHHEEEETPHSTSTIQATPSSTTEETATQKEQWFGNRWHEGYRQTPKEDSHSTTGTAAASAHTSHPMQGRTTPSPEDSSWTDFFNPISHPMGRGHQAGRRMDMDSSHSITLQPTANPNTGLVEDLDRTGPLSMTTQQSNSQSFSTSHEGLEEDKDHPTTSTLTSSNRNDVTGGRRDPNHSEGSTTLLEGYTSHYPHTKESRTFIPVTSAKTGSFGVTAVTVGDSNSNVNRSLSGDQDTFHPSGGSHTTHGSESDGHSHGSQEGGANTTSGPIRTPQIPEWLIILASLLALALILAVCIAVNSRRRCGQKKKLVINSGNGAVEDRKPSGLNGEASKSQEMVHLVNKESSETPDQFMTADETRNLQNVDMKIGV

[3] = biological target: human CD44v9 (CD44 variant containing exon v9), as expressed on PC9 cells and in human tissues (human) (UniProt P16070); test: FACS titration on PC9 cells (30000 pM to 0.1 pM, 3 fold serial dilution), Alexa488 anti-mouse IgG, MFI

| Binder | IC50 of cytotoxicity (growth inhibition) in PC9 cells [1] [nM] | IC50 of cytotoxicity (growth inhibition) in TE1 cells [1] [nM] | IC50 of PC9 growth inhibition (indirect cytotoxicity, mAb116 with 2 µg/mL MMAE-conjugated goat anti mouse IgG, 72 hrs, CCK8) [2] [nM] | Kd [3] [nM] |
| --- | --- | --- | --- | --- |
| B1 | 2.6 | 39 |  |  |
| B2 |  |  | 0.03 | 0.98 |
